Laboratory results as given in article PMC7221254.

Key:
[1] = target: T1, PrfA L140H (Listeria monocytogenes, UniProt P22262 1-237, L140H); test: SPR; settings: protein: recombinant; tags: His6 removed by TEV, leaves N-terminal GA; chain copies: 2; label: 5'-biotin on strand 1; blunt
[2] = target: T2, PrfA L140F (Listeria monocytogenes, UniProt P22262 1-237, L140F); test: SPR; settings: protein: recombinant; tags: His6 removed by TEV, leaves N-terminal GA; chain copies: 2; label: 5'-biotin on strand 1; blunt
[3] = target: T3, PrfA A218G (Listeria monocytogenes, UniProt P22262 1-237, A218G); test: SPR; settings: protein: recombinant; tags: His6 removed by TEV, leaves N-terminal GA; chain copies: 2; label: 5'-biotin on strand 1; blunt
[4] = target: PrfA WT (Listeria monocytogenes, UniProt P22262 1-237); test: SPR; settings: protein: recombinant; tags: His6-TEV vector pET His1a; chain copies: 2; label: 5'-biotin on strand 1; blunt
[5] = target: T1, PrfA L140H; test: crystal structure; PDB probably one of 6QWF/6QWH/6QWK/6QWM; assignment not in material; settings: protein: recombinant; tags: His6 removed by TEV, leaves N-terminal GA; chain copies: 2; blunt
[6] = target: T2, PrfA L140F; test: as above; settings: protein: recombinant; tags: His6 removed by TEV, leaves N-terminal GA; chain copies: 2; blunt
[7] = target: T3, PrfA A218G; test: as above; settings: protein: recombinant; tags: His6 removed by TEV, leaves N-terminal GA; chain copies: 2; blunt

| Binder | Kd [1] | Kd [2] | Kd [3] | Kd [4] | binding result [5] | binding result [6] | binding result [7] |
| --- | --- | --- | --- | --- | --- | --- | --- |
| hly promoter 40 bp (dsDNA) DNA 1: CTTTTATGTTGAGGCATTAACATTTGTTAACGACGATAAA DNA 2: TTTATCGTCGTTAACAAATGTTAATGCCTCAACATAAAAG | 10 nM | 15 nM | 4 nM | 110 nM | – | – | – |
| hly PrfA box 30 bp (dsDNA) DNA 1: TTGAGGCATTAACATTTGTTAACGACGATA DNA 2: TATCGTCGTTAACAAATGTTAATGCCTCAA | – | – | – | – | binds | binds | binds |
| actA promoter 40 bp (dsDNA) DNA 1: AGTTGGGGTTAACTGATTAACAAATGTTAGAGAAAAATTA DNA 2: TAATTTTTCTCTAACATTTGTTAATCAGTTAACCCCAACT | 85 nM | 95 nM | 27 nM | 690 nM | – | – | – |
| hpt promoter 40 bp (dsDNA) DNA 1: TTTTGTTTTCTGCATGATAACAAGTGTTAATGACGGAAAG DNA 2: CTTTCCGTCATTAACACTTGTTATCATGCAGAAAACAAAA | 210 nM | 270 nM | 55 nM | 1040 nM | – | – | – |
